Publication PMC8781159, “Implication of Potential Differential Roles of the Two Phosphoglucomutase Isoforms in the Protozoan Parasite Cryptosporidium parvum” (Pathogens, 2021)

B1: CpPGM1A (rCpPGM1A) (Cryptosporidium parvum) (protein)
chain: MEQVQVTPYLDQKPGTSGLRKKTRVFMEGTYLANFIESYFQSFPPENFEGATLLVAGDGRFFLPEAIQIISEIAAAHKVKRIWTGVNGLCSTPAGSAIIREREGGIAVGGILLTASHNPGGIDEDFGVKFNGKNGGPAQDSVTNTIFEITKKLTSYKKISLPKIDLSKIGVQELIPNQFTVEVIDTSEDWLKLMKKIFDFQKIQNLLNRKDFKMAFDSMHGVAGPYARKLFVDEFGLPESSLLHLESKPDFGGLHPDPNLTYAKDLVELMKVKSPEKVDKSTPDFGAAGDGDCDRNMILGKGFFVTPSDSVAIIASYAKEAIPYFSKGLAGVSRSMPTSTSLNNVAEKLGIPCYEVPTGWKYFGNLMDAKMIDICGEESFGTGSDHIREKDGLWAVLAWLSILAHKNPDPTKPLVSVEDITREFWKTYGRNYYTRFDYESIETEKADQFFKHLNSLMEDHQKLREIIKPYGIDIKLTDNFTYNDPVDKSVAKNQGLRFIFQDNSRVVFRLSGTGSVGATIRIYIEKTVSDQTKVNSTSNEILGDLIEIVEKKIKLKESTGRDRPTVIT
B2: CpPGM1B short form (rCpPGM1B-S) (Cryptosporidium parvum Iowa II) (protein)
chain: LLDMLVQEVQISPYLDQKPGTSGLRKKTRVFMEGTYLANFIESYFQSFPPENFEGATLLVAGDGRFFLPEAIQIISEIAAAHKVKRIWTGVNGLCSTPAGSAIIREREGGIAVGGILLTASHNPGGIDEDFGVKFNEKNGGPAQDSVTNAIFEITKKLTSYKKISLPKIDLSKIGVQELIPNQFTVEVIDTSEDWLKLMKKIFDFQKIQNLLNRKDFKMVFDSMHGVAGPYARKLFIDEFGLPESSLLHLESKPDFGGLHPDPNLTYAKDLVELMKVKSPEKVDKNTPDFGAAGDGDCDRNMILGKGFFVTPSDSVAIIASYAKEAIPYFSKGLAGVSRSMPTSTSLNNVAEKLGIPCYEVPTGWKYFGNLMDAKMIDICGEESFGTGSDHIREKDGLWAVLAWLSILAYKNPDPTKSLVSVEDITREFWKTYGRNYYTRFDYESVETEKADQFFKHLNSLMEDSQKLRNSLRSSGLKVKFMDNFTYNDPVDGSVTKNQGVRIIFTDGSRIIFRISGTGSVGATIRVYMEKTVKNPQEFEKTTQQALNHLIEIVEKKIKLKEITGRSKPTVIT
notes: PGM1 domain only; signal peptide and ~80 aa linker removed (full ORF 2013 bp); MBP-fusion (pMAL-c5x), E. coli BL21(DE3), MBP kept

Columns and labels:
[1] = molecular target: T1, CpPGM1B long form (rCpPGM1B-L) (Cryptosporidium parvum, UniProt Q5CTF2); assay: G6PDH-coupled assay, NADH formation at […] nm; type: biochemical; conditions: 50 mM Tris-HCl pH 8.5, 1.0 mM MgCl2, 0.2 mM NAD+, 2 mM G1P
T1 construct: gene cgd2_3270; linker plus PGM1 domain; signal peptide (63 nt) removed (full ORF 2013 bp); MBP-fusion (pMAL-c5x), E. coli BL21(DE3), MBP kept
T1 sequence (Q5CTF2 24-670): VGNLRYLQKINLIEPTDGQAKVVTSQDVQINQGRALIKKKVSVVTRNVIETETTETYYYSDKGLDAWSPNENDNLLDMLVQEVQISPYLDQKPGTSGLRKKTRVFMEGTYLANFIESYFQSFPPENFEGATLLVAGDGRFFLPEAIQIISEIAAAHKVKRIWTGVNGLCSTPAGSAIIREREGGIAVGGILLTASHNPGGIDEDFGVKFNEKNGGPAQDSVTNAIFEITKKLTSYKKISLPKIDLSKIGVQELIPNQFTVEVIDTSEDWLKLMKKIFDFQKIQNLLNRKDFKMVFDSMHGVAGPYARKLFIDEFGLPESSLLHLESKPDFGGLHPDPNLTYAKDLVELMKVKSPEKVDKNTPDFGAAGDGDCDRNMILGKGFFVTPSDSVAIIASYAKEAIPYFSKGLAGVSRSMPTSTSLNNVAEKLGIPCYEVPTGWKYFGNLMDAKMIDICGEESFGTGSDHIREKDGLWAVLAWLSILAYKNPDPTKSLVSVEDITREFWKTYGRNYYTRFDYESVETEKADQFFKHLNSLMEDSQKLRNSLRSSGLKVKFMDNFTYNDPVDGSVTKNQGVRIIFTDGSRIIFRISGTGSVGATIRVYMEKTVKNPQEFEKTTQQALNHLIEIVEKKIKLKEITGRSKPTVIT

purified protein = substrate: O=P(O)(O)O[C@H]1O[C@H](CO)[C@@H](O)[C@H](O)[C@H]1O; assay: purified protein; type: biochemical, Cryptosporidium parvum; conditions: 50 mM Tris-HCl pH 8.5, 1.0 mM MgCl2, 0.2 mM NAD+

Row | Molecule | G6PDH-coupled assay, NADH formation at 340 nm [1] | Km (purified protein) [mM]
1 | O=P(O)(O)O[C@H]1O[C@H](CO)[C@@H](O)[C@H](O)[C@H]1O [G1P, glucose-1-phosphate] | rCpPGM1A, rCpPGM1B-L and rCpPGM1B-S) displayed activity in converting G1P to G6P | 
2 | B1 |  | 0.17
3 | B2 |  | 0.13
